Data set [1] deals with the molecule itself. As to the kind of experiment: self-association; non-reducing SDS-PAGE, CBB staining. The text has this:
The recovered culture supernatant was applied to an antibody column obtained by immobilizing mouse anti-human AIM monoclonal antibody (clone 7, autologously manufactured) on HiTrap NHS-activated HP column (GE Healthcare Life Sciences) to purify human rAIM. The human rAIM bound to the antibody column was eluted with 0.1 M glycine-HCl (pH2.5), and immediately neutralized with 1 M Tris-HCl (pH 8.5) to obtain human rAIM eluate. The buffer in the eluate was substituted with Dulbecco's Phosphate-Buffered Saline (DPBS) by using Amicon Ultra filter concentrators (Millipore) to perform concentration. The protein level of the human rAIM concentrate was quantified using Bcinchoninic acid (BCA) assay (Pierce), and the final concentration was adjusted to 2.0 mg/mL with DPBS. The wild-type human rAIM protein (1 μg) purified and concentrated as mentioned above was separated under non-reducing conditions by polyacrylamide gel electrophoresis (SDS-PAGE) based on the difference in the molecular weights, Coomassie Brilliant Blue (CBB) staining was performed, and wild-type human rAIM was detected.
The wild-type mouse rAIM was prepared as follows. […] The protein level of the mouse rAIM concentrate was quantified using BCA assay, and the final concentration was adjusted to 2.0 mg/mL with DPBS. […]

Data set [2] deals with the molecule itself. Briefly: self-association; non-reducing SDS-PAGE, Oriole staining, 100 ng.
Data set [3] concerns the molecule itself. As to the kind of experiment: self-association; non-reducing SDS-PAGE, Oriole staining. An excerpt:
To verify the possibility of the cysteine at amino acid number 168 and the cysteine at amino acid number 277 of wild-type human AIM shown in SEQ ID NO: 1 being involved in the multimerization of wild-type human rAIM, the inventors prepared mutant human rAIM in which the above-mentioned cysteines are substituted with different amino acids. First, to maintain the function of wild-type human rAIM, the amino acid to be used for substitution was studied. Since cysteine is hydrophilic (hydrogen bond can be formed), electric charge 0, and non-aromatic, serine, threonine, asparagine, glutamine were selected as 4 similar amino acids. […] The mutant human rAIM was prepared as follows. […] The purified and concentrated wild-type, 2CS, 3CS, 2/3CS human rAIM proteins, each 100 ng, were separated by SDS-PAGE under non-reducing conditions based on the difference in the molecular weights, Oriole staining was performed, and each human rAIM protein was detected.

Changes are numbered by the printed parent chain.

B1: wild-type mouse recombinant AIM (other)
chain: VQLVGGAHRCEGRVEVEHNGQWGTVCDDGWDRRDVAVVCRELNCGAVIQTPRGASYQPPASEQRVLIQGVDCNGTEDTLAQCELNYDVFDCSHEEDAGAQCENPDSDLLFIPEDVRLVDGPGHCQGRVEVLHQSQWSTVCKAGWNLQVSKVVCRQLGCGRALLTYGSCNKNTQGKGPIWMGKMSCSGQEANLRSCLLSRLENNCTHGEDTWMECEDPFELKLVGGDTPCSGRLEVLHKGSWGSVCDDNWGEKEDQVVCKQLGCGKSLHPSPKTRKIYGPGAGRIWLDDVNCSGKEQSLEFCRHRLWGYHDCTHKEDVEVICTDFDV
notes: Secreted from HEK293 / HEK293T cells; also called wild-type mouse rAIM; mouse rAIM
Consider B1, for which the binding result in data set [1] is listed as “binds”.

B2: mutant mouse AIM 2CS (cysteine 168 of SEQ ID NO: 2 substituted with serine) (other)
chain: B1 chain with C168S
notes: Expressed transiently in HEK293T cells; also called 2CS mouse rAIM
For the protein B2, the binding result in data set [2] is on record as “no binding”.

B3: mutant human AIM 2CS (cysteine 168 of SEQ ID NO: 1 substituted with serine) (other)
chain: VRLVGGLHRCEGRVEVEQKGQWGTVCDDGWDIKDVAVLCRELGCGAASGTPSGILYEPPAEKEQKVLIQSVSCTGTEDTLAQCEQEEVYDCSHDEDAGASCENPESSFSPVPEGVRLADGPGHCKGRVEVKHQNQWYTVCQTGWSLRAAKVVCRQLGCGRAVLTQKRSNKHAYGRKPIWLSQMSCSGREATLQDCPSGPWGKNTCNHDEDTWVECEDPFDLRLVGGDNLCSGRLEVLHKGVWGSVCDDNWGEKEDQVVCKQLGCGKSLSPSFRDRKCYGPGVGRIWLDNVRCSGEEQSLEQCQHRFWGFHDCTHQEDVAVICSG
notes: Expressed transiently in HEK293T cells; also called 2CS human rAIM
Regarding B3, the binding result in data set [3] is “binds”.

B4: mutant human AIM 2/3CS (cysteines 168 and 277 of SEQ ID NO: 1 substituted with serine) (other)
chain: B3 chain with C277S
notes: Expressed transiently in HEK293T cells
With B4, in data set [2], the binding result is on record as “no binding”.

B5: mutant human AIM 3CS (cysteine 277 of SEQ ID NO: 1 substituted with serine) (other)
chain: B3 chain with S168C, C277S
notes: Expressed transiently in HEK293T cells; also called 3CS human rAIM
With B5, the binding result in data set [3] is “binds”.

B6: wild-type human recombinant AIM (apoptosis inhibitor of macrophage, CD5L) (other)
chain: B3 chain with S168C
notes: Secreted from HEK293 / HEK293T cells; also called wild-type human rAIM; human rAIM
Consider B6, for which the binding result in data set [1] was “binds”.

Values taken from patent US20200399332A1 (published 2020).
